Source: the Immune Epitope Database (IEDB)

What was measured:
HLA-A*68:02 = assay: IEDB peptide-MHC binding, purified MHC/competitive/radioactivity; filed as Kd, often an IC50 or EC50 that approximates it; ≥ and ≤ were set here for values at or beyond the usual limits of such assays
HLA-B*15:01 [1] = assay: IEDB peptide-MHC binding, purified MHC/competitive/fluorescence; ≥ and ≤ were set here for values at or beyond the usual limits of such assays
HLA-A*32:01 = assay: IEDB peptide-MHC binding, purified MHC/competitive/radioactivity; filed as Kd, often an IC50 or EC50 that approximates it; ≥ and ≤ were set here for values at or beyond the usual limits of such assays; conditions: source organism: Vaccinia virus WR
HLA-A*02:01 [2] = assay: IEDB peptide-MHC binding, purified MHC/competitive/fluorescence; ≥ and ≤ were set here for values at or beyond the usual limits of such assays
HLA-A*24:02 = assay: as above
HLA-B*35:01 = assay: IEDB peptide-MHC binding, purified MHC/competitive/radioactivity; filed as Kd, often an IC50 or EC50 that approximates it; ≥ and ≤ were set here for values at or beyond the usual limits of such assays; conditions: source organism: Dengue virus 4 Philippines/H241/1956
HLA-B*51:01 = assay: as above; conditions: source organism: Dengue virus 4 Philippines/H241/1956
HLA-B*07:02 [3] = assay: as above
HLA-A*02:01 [4] = assay: as above
HLA-A*02:06 = assay: as above; conditions: source organism: Homo sapiens
HLA-A*02:02 = assay: as above; conditions: source organism: Homo sapiens
HLA-A*02:03 = assay: as above; conditions: source organism: Homo sapiens
HLA-B*15:01 [5] = assay: IEDB peptide-MHC binding, purified MHC/direct/fluorescence; filed as Kd, often an IC50 or EC50 that approximates it; ≥ and ≤ were set here for values at or beyond the usual limits of such assays
HLA-B*08:01 = assay: as above
HLA-B*40:01 = assay: as above
HLA-A*24:03 = assay: as above
HLA-A*11:01 = assay: as above
HLA-B*07:02 [6] = assay: as above
HLA-A*02:01 [7] = assay: as above
HLA-A*69:01 = assay: as above
HLA-B*27:05 = assay: as above
HLA-A*01:01 = assay: as above
HLA-A*03:01 = assay: as above
HLA-A*26:01 = assay: as above
HLA-B*58:01 = assay: as above
HLA-A*31:01 = assay: as above; conditions: source organism: Giardia lamblia ATCC 50803
HLA-B*44:02 = assay: as above; conditions: source organism: Giardia lamblia ATCC 50803
HLA-B*57:01 = assay: as above; conditions: source organism: Giardia lamblia ATCC 50803
[8] = source organism: Dengue virus 2 Jamaica/1409/1983
[9] = source organism: Vaccinia virus
[10] = source organism: Sudan ebolavirus
[11] = source organism: Zaire ebolavirus
[12] = source organism: Dengue virus 4 Philippines/H241/1956
[13] = source organism: Histophilus somni
[14] = source organism: Pasteurella multocida
[15] = source organism: Dengue virus 1 Brazil/97-11/1997
[16] = source organism: Giardia lamblia ATCC 50803

**Q.** Which Kd (HLA-A*68:02; [8]) does the source give for LAANAICSAV here?
**A.** The Kd was 0.00904 µM.

**Q.** With LETDLRSEF as the sequence, how does the IC50 (HLA-B*15:01 [1]; [9]) read?
**A.** The IC50 was 47.5 µM.

**Q.** How did the Kd (HLA-A*32:01) turn out when LLLWFNYLF was run?
**A.** The Kd was 0.00145 µM.

**Q.** What about the IC50 (HLA-B*15:01 [1]; source organism: Variola virus) of the same sequence?
**A.** Its IC50 is no less than 2970 µM.

**Q.** And the IC50 (HLA-A*02:01 [2]; source organism: Variola virus)?
**A.** The IC50 was 0.125 µM.

**Q.** What does the source list for LLQLPRDKF?
**A.** IC50 (HLA-B*15:01 [1]; [10]): 10.6 µM; IC50 (HLA-A*02:01 [2]; [10]): 13.3 µM; IC50 (HLA-A*24:02; [10]): 4.77 µM

**Q.** With LMHNQDGLI as the sequence, how does the IC50 (HLA-B*15:01 [1]; [11]) read?
**A.** Its IC50 is 67.4 µM.

**Q.** And the IC50 (HLA-A*02:01 [2]; [11])?
**A.** The IC50 was 1.72 µM.

**Q.** And the IC50 (HLA-A*24:02; [11])?
**A.** The IC50 was 24.6 µM.

**Q.** With LPIRYQTPAV as the sequence, how does the Kd (HLA-B*35:01) read?
**A.** The Kd was 0.11 µM.

**Q.** What about the Kd (HLA-B*51:01) of the same sequence?
**A.** Its Kd is 0.198 µM.

**Q.** What about the Kd (HLA-B*07:02 [3]; [12]) of the same sequence?
**A.** Its Kd is 0.0267 µM.

**Q.** What does the source list for LQSPPIREA?
**A.** IC50 (HLA-B*15:01 [1]; [10]): 37.8 µM; IC50 (HLA-A*02:01 [2]; [10]): 14.3 µM

**Q.** NPNMIDKTPV was tested. Which Kd (HLA-B*07:02 [3]; source organism: Dengue virus 4 Thailand/0348/1991) did it give?
**A.** The Kd was 0.402 µM.

**Q.** How did the Kd (HLA-A*02:01 [4]; source organism: Hepatitis B virus subtype adw2) turn out when NVSIPWTHK was run?
**A.** The Kd was no less than 35 µM.

**Q.** With QLADETLLKV as the sequence, how does the Kd (HLA-A*02:06) read?
**A.** Its Kd is 0.0614 µM.

**Q.** And the Kd (HLA-A*02:02)?
**A.** Its Kd is 0.014 µM.

**Q.** What about the Kd (HLA-A*68:02; source organism: Homo sapiens) of the same sequence?
**A.** The Kd was 11.9 µM.

**Q.** Which Kd (HLA-A*02:03) does the source give for QLYKEQLAKL here?
**A.** The Kd was 0.0163 µM.

**Q.** What about the Kd (HLA-A*02:01 [4]; source organism: Homo sapiens) of the same sequence?
**A.** The Kd was 0.078 µM.

**Q.** And the Kd (HLA-A*02:02)?
**A.** Its Kd is 0.00463 µM.

**Q.** What about the Kd (HLA-A*68:02; source organism: Homo sapiens) of the same sequence?
**A.** The Kd was 7.62 µM.

**Q.** For QMKDCMREL, which Kd (HLA-A*68:02; source organism: Homo sapiens) is on record?
**A.** The Kd was no less than 60 µM.

**Q.** Which IC50 (HLA-B*15:01 [1]; [11]) does the source give for QQKNSQKGQ here?
**A.** Its IC50 is no less than 93.5 µM.

**Q.** How did the Kd (HLA-A*68:02; [8]) turn out when QVMLLILCV was run?
**A.** The Kd was 1.74 µM.

**Q.** Which results are given for QYPAFVLFI?
**A.** Kd (HLA-B*15:01 [5]; [13]): ≥ 20 µM; Kd (HLA-B*08:01; [13]): ≥ 20 µM; Kd (HLA-B*40:01; [13]): ≥ 20 µM; Kd (HLA-A*24:03; [14]): 0.00192 µM; Kd (HLA-A*11:01; [14]): 2.82 µM; Kd (HLA-B*07:02 [6]; [13]): ≥ 20 µM; Kd (HLA-A*02:01 [7]; [13]): ≥ 20 µM; Kd (HLA-A*69:01; [13]): ≥ 20 µM; Kd (HLA-B*27:05; [13]): ≥ 20 µM; Kd (HLA-A*01:01; [13]): ≥ 20 µM; Kd (HLA-A*03:01; [13]): ≥ 20 µM; Kd (HLA-A*26:01; [13]): ≥ 20 µM; Kd (HLA-B*58:01; [13]): ≥ 20 µM

**Q.** RPAKNGTVMD was tested. Which Kd (HLA-B*07:02 [3]; [15]) did it give?
**A.** Its Kd is 0.317 µM.

**Q.** RPRGHREFC was tested. Which Kd (HLA-A*31:01) did it give?
**A.** Its Kd is no less than 20 µM.

**Q.** And the Kd (HLA-B*15:01 [5]; [16])?
**A.** Its Kd is no less than 20 µM.

**Q.** What about the Kd (HLA-B*08:01; [16]) of the same sequence?
**A.** The Kd was 8.07 µM.

**Q.** And the Kd (HLA-B*40:01; [16])?
**A.** Its Kd is no less than 20 µM.

**Q.** What about the Kd (HLA-A*24:03; [16]) of the same sequence?
**A.** Its Kd is no less than 20 µM.

**Q.** And the Kd (HLA-A*11:01; [16])?
**A.** Its Kd is no less than 20 µM.

**Q.** What about the Kd (HLA-B*07:02 [6]; [16]) of the same sequence?
**A.** The Kd was 0.0984 µM.

**Q.** And the Kd (HLA-B*44:02)?
**A.** Its Kd is no less than 20 µM.

**Q.** And the Kd (HLA-A*02:01 [7]; [16])?
**A.** The Kd was no less than 20 µM.

**Q.** What about the Kd (HLA-A*69:01; [16]) of the same sequence?
**A.** The Kd was no less than 20 µM.

**Q.** What about the Kd (HLA-B*27:05; [16]) of the same sequence?
**A.** The Kd was no less than 20 µM.

**Q.** What about the Kd (HLA-A*01:01; [16]) of the same sequence?
**A.** Its Kd is no less than 20 µM.

**Q.** And the Kd (HLA-A*03:01; [16])?
**A.** The Kd was no less than 20 µM.

**Q.** What about the Kd (HLA-A*26:01; [16]) of the same sequence?
**A.** The Kd was no less than 20 µM.

**Q.** And the Kd (HLA-B*58:01; [16])?
**A.** The Kd was no less than 20 µM.

**Q.** For SILRVGTLT, which Kd (HLA-A*02:01 [4]; source organism: Lassa virus Josiah) is on record?
**A.** Its Kd is no less than 25 µM.

**Q.** With SKNNIGIEY as the sequence, how does the IC50 (HLA-B*15:01 [1]; [9]) read?
**A.** Its IC50 is no less than 87.2 µM.

**Q.** Which Kd (HLA-B*15:01 [5]; source organism: SARS-CoV1) does the source give for SLAIDAYPL here?
**A.** The Kd was 1.08 µM.

**Q.** And the Kd (HLA-B*08:01; source organism: SARS-CoV1)?
**A.** The Kd was 9.19 µM.

**Q.** What about the Kd (HLA-B*40:01; source organism: SARS-CoV1) of the same sequence?
**A.** The Kd was no less than 31.5 µM.

**Q.** What about the Kd (HLA-B*07:02 [6]; source organism: SARS-CoV1) of the same sequence?
**A.** The Kd was no less than 33.4 µM.

**Q.** And the Kd (HLA-A*02:01 [7]; source organism: SARS-CoV1)?
**A.** Its Kd is 0.145 µM.

**Q.** And the Kd (HLA-A*69:01; source organism: SARS-CoV1)?
**A.** The Kd was 0.272 µM.

**Q.** Which results are given for SLAKHGEYA?
**A.** IC50 (HLA-B*15:01 [1]; [11]): ≥ 127 µM; IC50 (HLA-A*02:01 [2]; [11]): 7.2 µM

**Q.** Which Kd (HLA-B*07:02 [3]; [8]) does the source give for SPPPVGKAEL here?
**A.** Its Kd is 0.0673 µM.

**Q.** With TIAVSTANI as the sequence, how does the Kd (HLA-A*68:02; [12]) read?
**A.** Its Kd is 0.0256 µM.

**Q.** For TSLSMTCIAV, which Kd (HLA-A*68:02; [15]) is on record?
**A.** The Kd was 13.5 µM.

**Q.** With TTATITPQA as the sequence, how does the Kd (HLA-A*68:02; source organism: Dengue virus 1 Nauru/West Pac/1974) read?
**A.** The Kd was 0.00112 µM.

**Q.** With TTPFGQQRV as the sequence, how does the Kd (HLA-A*68:02; [12]) read?
**A.** Its Kd is 0.102 µM.

**Q.** With VFAPKQKMF as the sequence, how does the IC50 (HLA-B*15:01 [1]; [9]) read?
**A.** The IC50 was 14 µM.

**Q.** What about the IC50 (HLA-A*24:02; [9]) of the same sequence?
**A.** The IC50 was 0.0261 µM.

**Q.** For YMYAATNTH, which Kd (HLA-B*15:01 [5]; [16]) is on record?
**A.** The Kd was 0.04 µM.

**Q.** And the Kd (HLA-B*57:01)?
**A.** The Kd was no less than 20 µM.

**Q.** And the Kd (HLA-B*58:01; [16])?
**A.** Its Kd is no less than 20 µM.
